Results on 2 substances are retold here after patent US10702610B2, “Method of making sulfur-containing polymers from hexahydrotriazine and dithiol precursors” (International Business Machines Corporation, priority 2015, dated 2020).

Data set [1] concerns human embryonic kidney cells from cell line HEK293. Briefly: incubation with HEK293 cells, cell viability. In kind it is cell-based. The procedure: (§1) To investigate toxicity of the polymer-peptide product, the polymer-peptide product was dissolved in a simulated physiological environment comprising 10% prenatal bovine serum in a phosphate-buffered saline solution. […] The polymer-peptide products was also incubated with human embryonic kidney cells from cell line HEK293 for 24 hours, after which more than 90% cell viability was observed.

A further data set can be described thus: hemolysis. In kind it is cell-based. The conditions noted are these: doses up to 1000 mg/L. The procedure:
as §1

Data set [2] in a line: dissolution in simulated physiological environment (10% prenatal bovine serum in phosphate-buffered saline), precipitation/aggregation. It counts as physicochemical. The conditions noted are these: over 24 hours. The procedure:
as §1

No end group written: not given here.

With “peptide: thiol-containing amphiphilic alpha-helical peptide SEQ. ID: NO: 1-NH2 (CLLKKLLKKC-NH2; cysteine pairing not given here) [reference compound]”, in data set [1] (HEK293, dose of 50 mg/L), the cell viability entry is listed as “below 70%”.
“polymer-peptide product: peptide SEQ. ID: NO: 1-NH2 attached to water-soluble polythioaminal polymer 4a (CLLKKLLKKC-NH2; cysteine pairing not given here; also: attached to polythioaminal polymer 4a)”: the hemolysis result in the data set “hemolysis” is “No hemolysis was observed”. In data set [2], the “precipitation or aggregation in solution” value is on record as “No precipitation or aggregation was observed”. Moreover, the cell viability entry in data set [1] (HEK293, 200 mg/L, similar incubation period) was “more than 80%”; in data set [1] (HEK293, incubated 24 hours, dose not stated), “more than 90%”.
